Series [1] deals with PRRSV LHVA-93-3 virion, M/GP5 surface complex (Porcine reproductive and respiratory syndrome virus type 2). The series is described as follows: cell_activity. The following applies: protection of MARC-145 cells, 500 pmole aptamer, MTT assay; also reduces lung titre in swine.
In series [2] the test system is PRRSV NVSL virion, M/GP5 surface complex (Porcine reproductive and respiratory syndrome virus type 2). Briefly: cell_activity. The following applies: protection of MARC-145 cells, 500 pmole aptamer, MTT assay.
Series [3] concerns the target T1, PRRSV type 1 (Lelystad) M-S-S-GP5 disulfide-linked heterodimer peptide complex (Porcine reproductive and respiratory …, UniProt Q04565;Q04569).
T1 chain 1: MGGLDDFCNDPIAAQ
T1 chain 2: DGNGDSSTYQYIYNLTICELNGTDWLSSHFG
The series is described as follows: ELONA; type 1 complex. The following applies: protein: synthetic.

Series [4] has as its target T2, PRRSV type 2 M(1-16)-S-S-GP5(31-61) disulfide-linked heterodimer peptide complex (Porcine reproductive and respiratory …).
T2 chain 1: MGSSLDDFCHDSTAPQ
T2 chain 2: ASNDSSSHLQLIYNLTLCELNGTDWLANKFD
The series is described as follows: ELONA; streptavidin plate, PBS-T, 37 C. The following applies: protein: synthetic, tags: His-labelled (Ni-NTA captured), synthetic glycosylated peptide complex, disulfide M Cys9-GP5 Cys48.

The mark [5] stands for this setting: label: biotin (reverse screening ELISA).

For the molecule “GGGCGACCCTGAAGAGTTTGTAATCTGCGATTTTAAAGTTGAGTCGTCGCGAAACGGTGAAAGCCGTAGGTTGCCC [A505 (CoocSeq5)]”, the figures for the activity in series [1] and in series [2] were 60% and 70%, respectively.

B1: PEU-424 (ssDNA)
DNA: GGGCGACCCTGAAGAGGATGTTGATAGAGCGCCGACCACACACGCACGAAACGGTGAAAGCCGTAGGTTGCCC
As for B1, the binding result in series [3] is “binds”.

B2: PEU-852 (ssDNA)
DNA: GGGCGACCCTGAAGAGGACACTGCACGTACACAACGAGGATGAACACGAAACGGTGAAAGCCGTAGGTTGCCC
As for B2, the binding result in series [3] was “binds”.

B3: PEU-962 (ssDNA)
DNA: GGGCGACCCTGAAGAGGATAGACAATAGCACACCACGCCCCTGCCACGAAACGGTGAAAGCCGTAGGTTGCCC
For B3, the binding result in series [3] is “binds”.

B4: A507 (CoocSeq7_HistoSeq14) (ssDNA)
DNA: GGGCGACCCTGAAGAGGTTTGCATATTATAGTTATAGGAGGTGTGTAATGGACGAAACGGTGAAAGCCGTAGGTTGCCC
On to B4, for which the binding result in series [4] (setting [5]) was “binds”.

B5: PEU-842 (ssDNA)
DNA: GGGCGACCCTGAAGAGGACCAGAAGCACGGACCACACACAGCGTATCGAAACGGTGAAAGCCGTAGGTTGCCC
B5: the binding result in series [3] is listed as “binds”.

B6: PEU-499 (ssDNA)
DNA: GGGCGACCCTGAAGAGTACACACGGGACACACACACACTCACTAGACGAAACGGTGAAAGCCGTAGGTTGCCC
For B6, in series [3], the binding result is listed as “binds”.

B7: A505 (CoocSeq5) (ssDNA)
DNA: GGGCGACCCTGAAGAGTTTGTAATCTGCGATTTTAAAGTTGAGTCGTCGCGAAACGGTGAAAGCCGTAGGTTGCCC
As to B7, the binding result in series [4] (label: 5' biotin (reverse screening ELISA)) is recorded as “binds”.

B8: A508 (CoocSeq8) (ssDNA)
DNA: GGGCGACCCTGAAGAGACTGGTGAGTTAATGTTTTTTCTTAGCCTTGTATCGAAACGGTGAAAGCCGTAGGTTGCCC
B8: the binding result in series [4] (setting [5]) is listed as “binds”.

The values are drawn from patent US20180371461, “[…], NUCLEIC ACID MOLECULES, POLYNUCLEOTIDES, […] ANTIBODIES COMPOSITIONS FOR […] PRRS VIRUSES AND […] PRRS VIRUS INFECTION” (AEROVIRUS TECHNOLOGIES INC., published 2018).
